{
  "source": "patent US20230407276",
  "about": "“CRISPR-CAS EFFECTOR POLYPEPTIDES AND METHODS OF USE THEREOF” (The Regents of the University of California, published 2023)",
  "molecules": {"B1": {"name": "sgRNAv1-2 ; dsDNA target 40 bp (ssRNA ; dsDNA)", "RNA": "UGGCGCGUUUAUUCCAUUACUUUGGAGCCAGUCCCAGCGACUAUGUCGUAUGGACGAAGCGCUUAUUUAUCGGAGAGAAACCGAUAAGUAAAACGCAUCAAAGUCCUGCAGCAGAAAAUCAAAG", "DNA 1": "ATCGTTATACTTTGATTTTCTGCTGCAGGATGAAATCCCG", "DNA 2": "CGGGATTTCATCCTGCAGCAGAAAATCAAAGTATAACGAT"}, "B2": {"name": "sgRNAv2-3 ; dsDNA target 40 bp (ssRNA ; dsDNA)", "RNA": "UACUGGCGCUUUUAUCUCAUUACUUUGAGAGCCAUCACCAGCGACUAUGUCGUAUGGGUAAAGCGCUUAUUUAUCGGAGAAACCGAUAAAUAAGAAGCAUCAAAGUCCUGCAGCAGAAAAUCAAAG", "DNA 1": "ATCGTTATACTTTGATTTTCTGCTGCAGGATGAAATCCCG", "DNA 2": "CGGGATTTCATCCTGCAGCAGAAAATCAAAGTATAACGAT"}, "B3": {"name": "sgRNAv2-2 ; dsDNA target 40 bp (ssRNA ; dsDNA)", "RNA": "UGGCGCUUUUAUCUCAUUACUUUGAGAGCCAUCACCAGCGACUAUGUCGUAUGGGUAAAGCGCUUAUUUAUCGGAGAAACCGAUAAAUAAGAAGCAUCAAAGUCCUGCAGCAGAAAAUCAAAG", "DNA 1": "ATCGTTATACTTTGATTTTCTGCTGCAGGATGAAATCCCG", "DNA 2": "CGGGATTTCATCCTGCAGCAGAAAATCAAAGTATAACGAT"}},
  "key": {"[1]": {"system": "DpbCasX dH2 Helical-II domain deleted", "test": "cleavage_in_vitro", "conditions": "NTS; 37 C, Mg2+; TS value 0.008223; unit assumed"}, "[2]": {"system": "PlmCasX dH2 Helical-II domain deleted", "test": "cleavage_in_vitro", "conditions": "NTS; 37 C, Mg2+; TS value 1.741e-5; unit assumed"}, "DpbCasX (DpbCasXv1)": {"biological_target": "T1, DpbCasX (DpbCasXv1)", "T1 chain": "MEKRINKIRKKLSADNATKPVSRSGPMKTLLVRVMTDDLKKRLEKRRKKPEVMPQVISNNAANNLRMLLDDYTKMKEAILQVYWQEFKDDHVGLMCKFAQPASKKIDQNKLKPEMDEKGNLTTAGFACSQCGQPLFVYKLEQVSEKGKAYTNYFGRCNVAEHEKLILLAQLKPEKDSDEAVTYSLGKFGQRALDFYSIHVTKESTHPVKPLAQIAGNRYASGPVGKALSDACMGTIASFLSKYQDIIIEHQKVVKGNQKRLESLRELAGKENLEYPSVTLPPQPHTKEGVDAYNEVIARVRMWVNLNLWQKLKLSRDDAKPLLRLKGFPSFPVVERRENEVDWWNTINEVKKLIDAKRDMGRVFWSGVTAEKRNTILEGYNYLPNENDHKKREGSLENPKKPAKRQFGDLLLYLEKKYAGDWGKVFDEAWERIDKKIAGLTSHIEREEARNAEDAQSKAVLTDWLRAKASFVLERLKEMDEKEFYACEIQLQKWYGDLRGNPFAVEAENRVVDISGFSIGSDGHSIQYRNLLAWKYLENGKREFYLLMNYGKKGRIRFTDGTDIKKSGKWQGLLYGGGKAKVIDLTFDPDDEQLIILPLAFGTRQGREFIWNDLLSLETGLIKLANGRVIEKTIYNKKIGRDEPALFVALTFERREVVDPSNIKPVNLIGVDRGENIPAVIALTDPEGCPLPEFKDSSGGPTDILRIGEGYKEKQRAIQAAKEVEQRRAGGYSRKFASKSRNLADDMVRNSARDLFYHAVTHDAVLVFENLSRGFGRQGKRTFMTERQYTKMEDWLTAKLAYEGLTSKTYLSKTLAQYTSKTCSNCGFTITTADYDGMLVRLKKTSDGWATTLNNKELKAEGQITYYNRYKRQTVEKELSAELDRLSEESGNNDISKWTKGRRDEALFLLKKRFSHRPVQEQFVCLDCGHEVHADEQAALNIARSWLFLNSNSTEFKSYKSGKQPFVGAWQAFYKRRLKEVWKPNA", "test": "cleavage_in_vitro; NTS; 37 C, Mg2+", "conditions": "label: 5'-32P", "from_the_text": "(§1) FIG. 14A-14G. Updated design of the CasX sgRNA. […] The coverage axis denotes the number of sequencing reads. The abscissa denotes the genome sequence of the hypothetical tracrRNA region. (B) The structural details for sgRNAv1. The additional U at the 5′ end was hypothetically modeled in the top panel. The structural details of the G30-C54 base-paring region in sgRNAv1 are also shown in the bottom panel. […] The sgRNAv1-2 architecture is modeled based on sgRNAv1. The potential base-pairing between the additional 5′ U and A29 is labeled with a dashed line. The Helical-II domain was modeled to indicate the interaction interface with the sgRNA scaffold stem. (D) In vitro dsDNA cleavage activity comparison among different sgRNAs by DpbCasX and PlmCasX. The NTS was ³²P labeled on the 5′ end. (E) Cleavage kinetics analysis was based on the NTS band density from the cleaved fractions compared to the input NTS band density at the reaction time of 0 min (n=3, mean±s.d.) (DpbCasX-v2 from FIG. 15A). The fractions were collected from 0 min to 6 hrs. […] (F) The hypothetical secondary architectures of sgRNAv2 designs. […] The fractions were collected at 0 min, 10 mins, 20 mins, 40 mins, 1 hr, 2 hrs, 4 hrs and 6 hrs, respectively. OC/N indicates the open-circle or nicked plasmids, L indicates the linearized plasmids and SC indicates the super-coiled plasmids (n=3, representative gel shown)."}, "PlmCasX (PlmCasXv1)": {"biological_target": "T2, PlmCasX (PlmCasXv1)", "T2 chain": "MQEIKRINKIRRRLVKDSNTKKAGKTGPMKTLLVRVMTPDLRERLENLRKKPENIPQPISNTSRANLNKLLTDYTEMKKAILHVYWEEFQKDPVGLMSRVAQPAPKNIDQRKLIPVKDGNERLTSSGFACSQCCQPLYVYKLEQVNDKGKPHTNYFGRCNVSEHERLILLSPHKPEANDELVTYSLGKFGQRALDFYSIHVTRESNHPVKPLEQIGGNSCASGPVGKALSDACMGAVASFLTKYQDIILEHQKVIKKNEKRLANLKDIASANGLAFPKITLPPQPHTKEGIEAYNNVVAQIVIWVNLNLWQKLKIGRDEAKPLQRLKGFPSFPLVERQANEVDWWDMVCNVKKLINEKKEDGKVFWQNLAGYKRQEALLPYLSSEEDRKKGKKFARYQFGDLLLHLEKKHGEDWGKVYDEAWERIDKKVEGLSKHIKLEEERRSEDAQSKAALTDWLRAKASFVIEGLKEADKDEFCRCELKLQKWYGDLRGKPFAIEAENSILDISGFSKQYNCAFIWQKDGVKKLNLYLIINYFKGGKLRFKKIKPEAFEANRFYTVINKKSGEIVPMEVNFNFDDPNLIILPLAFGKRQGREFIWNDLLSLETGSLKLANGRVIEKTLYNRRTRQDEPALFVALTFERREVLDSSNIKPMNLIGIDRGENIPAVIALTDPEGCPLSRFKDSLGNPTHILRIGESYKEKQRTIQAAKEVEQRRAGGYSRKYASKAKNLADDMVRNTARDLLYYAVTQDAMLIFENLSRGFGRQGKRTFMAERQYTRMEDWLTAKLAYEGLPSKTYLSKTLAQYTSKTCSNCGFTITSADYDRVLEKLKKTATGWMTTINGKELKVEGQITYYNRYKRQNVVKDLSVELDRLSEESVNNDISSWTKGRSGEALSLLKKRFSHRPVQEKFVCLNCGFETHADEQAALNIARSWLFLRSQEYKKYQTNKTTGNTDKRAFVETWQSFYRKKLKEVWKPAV", "test": "cleavage_in_vitro; NTS; 37 C, Mg2+", "conditions": "label: 5'-32P", "from_the_text": "as §1"}},
  "data": [
    {"molecule": "GGCGCGUUUAUUCCAUUACUUUGGAGCCAGUCCCAGCGACUAUGUCGUAUGGACGAAGCGCUUAUUUAUCGGAGAGAAACCGAUAAGUAAAACGCAUCAAAGUCCUGCAGCAGAAAAUCAAA / ATCGTTATACTTTGATTTTCTGCTGCAGGATGAAATCCCG / CGGGATTTCATCCTGCAGCAGAAAATCAAAGTATAACGAT [sgRNAv1 ; dsDNA target 40 bp]", "values": [
      {"measurement": "activity", "setting": "[1]", "result": 0.00671, "unit": "min⁻¹"},
      {"measurement": "activity", "setting": "[2]", "result": 0.00268, "unit": "min⁻¹"}
    ]},
    {"molecule": "B1", "values": [
      {"measurement": "activity", "setting": "DpbCasX (DpbCasXv1)", "result": "0.0109 k (unit not stated; min-1 inferred)"}
    ]},
    {"molecule": "B2", "values": [
      {"measurement": "activity", "setting": "PlmCasX (PlmCasXv1)", "result": "0.0217 k (unit not stated; min-1 inferred)"}
    ]},
    {"molecule": "B3", "values": [
      {"measurement": "activity", "setting": "PlmCasX (PlmCasXv1)", "result": "0.00919 k (unit not stated; min-1 inferred)"}
    ]}
  ]
}
